Laboratory results taken from paper PMC5756113 (Peptides, 2017).

Tests used:
[1] = mouse, in vivo
[2] = mouse, in vivo; remark: listed apart in the source
[3] = in vivo, cited from earlier work

Substance | Average rate of I-PACAP38 transport into whole brain in the No-Sham Controls [1] [µL/g/min] | Average rate of transport into the whole brain for all groups [1] [µL/g/min] | Increase in the Vi, CCI versus Sham [1] [fold] | Transport rate in cerebellum compared to the cortices and whole brain [1] [fold] | %Inj/g in cerebellum (average) [2] [%Inj/g] | Amount of I-PACAP38 to enter the brain (value calculated here) [2] [%Inj/g] | I-PACAP38 %Inj/g in the ipsilateral cortex, CCI compared to Sham [2] | Rate of PACAP38 transport across the mouse BBB [3] [µL/g/min] | Amount of I-PACAP38 to enter the brain ([3]; mouse) [%Inj/g] | Vi previously reported ([3]; mouse) [µL/g] | Increase in the rate of transport at 72 hours post-CCI compared to the 2 hour time point [1] | Half-time disappearance of PACAP38 from the blood ([3]; mouse) [min]
I-PACAP38: 38-amino acid form of PACAP (Bachem) radioactively labeled with 125I by the lactoperoxidase method | 2.35 | 2.98 | 1.4 | ~2 | 0.37 | 0.15 | nearly a doubling | 2.86 | 0.119 | 18.5 |  | 
Pituitary adenylate cyclase-activating polypeptide 38 [PACAP38, reference compound] |  |  |  |  |  |  |  | 2.86 ± 0.57 |  |  | 2–3 fold | 0.82
